From article doi:10.1101/730739

Key:
[1] = biological target: BAP-tagged Histophilus somni Transferrin binding protein B (aa 21-643) (Histophilus somni strain H191); assay: BLI
[2] = biological target: caprine transferrin (goat); assay: ELISA
[3] = biological target: ovine transferrin (sheep); assay: ELISA

Row | fold lower affinity than for bovine transferrin [1] | absorbance signal relative to that with bovine transferrin [2] | absorbance signal relative to that with bovine transferrin [3] | Substance
1 | 15.7 fold | – | – | caprine transferrin (ligand)
2 | – | 0.25 fold | 0.25 fold | Histophilus somni Transferrin binding protein A 2 (receptor)
3 | 3 fold | – | – | ovine transferrin (ligand)
